Reference: paper PMC4544033, “Real-time analysis of epithelial-mesenchymal transition using fluorescent single-domain antibodies” (Scientific Reports, 2015)
Substitutions are numbered along the chain they refer to.

Tests used:
purified vimentin-His6 = molecular target: T1, purified vimentin-His6 (Homo sapiens, UniProt P08670); assay: ELISA; solid-phase phage ELISA of 47 single clones after two cycles of biopanning against full-length vimentin; conditions: one partner purified
T1 construct: vimentin, full length; Antigen of immunisation, biopanning and phage ELISA; details in the Supplementary methods; also called recombinant vimentin; full-length vimentin

[1] = molecular target: T2, endogenous vimentin (MDCK cells) (Canis lupus familiaris, UniProt A0A8C0N8E3); assay: immunostaining of cells or tissue; fixed (4% PFA), permeabilised MDCK, HeLa and MDA-MB-231 cells; ATTO488-labeled nanobodies 10 ug/ml in 3% BSA in PBS, 16 h at 4 °C; compared or co-stained with an anti-vimentin IgG; conditions: one partner purified
T2 construct: vimentin, endogenous in MDCK cells; source: endogenous, MDCK lysate; fixed MDCK cells

GFP-labeled vimentin = molecular target: T3, GFP-labeled vimentin (Homo sapiens, UniProt P08670); assay: BLI; fiber optic sensors with immobilized VB3 and VB6; serial dilutions of the soluble protein fraction of HEK293T cells comprising GFP-VIM or GFP; conditions: one partner purified
T3 construct: vimentin, full length; Expression constructs are described in the Supplementary methods; also called GFP-VIM; eGFP-Vimentin; source: HEK293T, transfected, in lysate (soluble protein fraction)

[2] = molecular target: T2, endogenous vimentin (MDCK cells); assay: pull-down; nanobodies covalently coupled to agarose (NHS-Sepharose) beads incubated with soluble protein fractions of cell lines (HeLa, MDCK, A549 or HEK293T), 16 h at 4 °C; immunoblot with anti-vimentin IgG; conditions: one partner purified
[3] = molecular target: T4, vimentin rod domain fused to GFP (Homo sapiens, UniProt P08670); assay: pull-down; immobilized nanobodies incubated with lysates of HEK293T cells transfected with GFP fusions of vimentin or its domains; immunoblot with anti-GFP antibody; conditions: one partner purified
T4 construct: vimentin central helical rod domain, aa 96-407; also called central helical rod domain (aa 96-407); source: HEK293T, transfected, in lysate

[4] = molecular target: endogenous vimentin (human cell lines) (human (endogenous in HeLa, HEK293T, A549, MDA-MB-231)) (UniProt P08670)
endogenous vimentin (human cell lines) (human (endogenous in HeLa, HEK293T, A549, MDA-MB-231)), sequence (P08670 whole entry): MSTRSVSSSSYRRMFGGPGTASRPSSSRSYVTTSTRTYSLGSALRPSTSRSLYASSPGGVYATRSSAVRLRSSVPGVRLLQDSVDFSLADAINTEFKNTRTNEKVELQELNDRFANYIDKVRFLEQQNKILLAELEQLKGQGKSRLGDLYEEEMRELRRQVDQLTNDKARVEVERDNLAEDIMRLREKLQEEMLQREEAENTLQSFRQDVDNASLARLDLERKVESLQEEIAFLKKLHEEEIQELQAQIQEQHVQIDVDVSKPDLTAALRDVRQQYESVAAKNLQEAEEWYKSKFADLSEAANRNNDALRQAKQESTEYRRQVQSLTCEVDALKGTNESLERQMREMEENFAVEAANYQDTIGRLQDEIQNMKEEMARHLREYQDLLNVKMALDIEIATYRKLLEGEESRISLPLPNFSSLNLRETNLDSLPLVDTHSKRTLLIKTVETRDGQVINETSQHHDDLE

T3 sequence (P08670 whole entry): as above
T1 sequence (P08670 whole entry): as above
T2 sequence (A0A8C0N8E3 whole entry): as the sequence (P08670 whole entry) above, with A21G, S27T, V60A, N201S, E239D, E251D, V258M, T317N, S412A counted along it
T4 sequence (P08670 96-407): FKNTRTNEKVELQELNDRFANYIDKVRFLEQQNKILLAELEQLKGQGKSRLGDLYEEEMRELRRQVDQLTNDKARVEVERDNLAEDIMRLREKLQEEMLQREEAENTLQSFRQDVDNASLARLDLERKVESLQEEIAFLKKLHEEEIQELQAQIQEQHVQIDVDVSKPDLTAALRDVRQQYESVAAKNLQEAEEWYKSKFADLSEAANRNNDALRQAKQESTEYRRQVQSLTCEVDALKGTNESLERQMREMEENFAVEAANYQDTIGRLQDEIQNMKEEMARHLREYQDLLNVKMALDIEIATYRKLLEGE

B1: VG4, phage-displayed clone (VHH)
VHH: QVQLVESGGGLVQPGGSLRLSCVASGFTFSDYWMYWVRQAPGKGLEWVSGISPGGTTTYADSVKGRFTTSRDNTRNTLYLQMNELKPEDTAVYYCAKDLNWVDSDDYWGRGTQVTVSS
notes: VH domain derived from a conventional IgG by its hallmark residues
binding result (purified vimentin-His6): binds

B2: VB6 nanobody coupled to ATTO488 (VHH)
VHH: QVQLVESGGGLVQSGGSLTLTCAASGFTFSAASMRWVRQVPGKGLEWVATIDGTGANSYYSESAKGRFTISRDNARNTLRLQMNNLKPDDTAVYYCANFGRNYWGKGTQVTVSS
notes: also called VB6_(ATTO488); source: E. coli, purified, chemically coupled to ATTO488 NHS-ester
binding result [1]: binds

B3: VB6 nanobody (VHH)
VHH: B2 VHH
notes: Single-domain antibody; Used immobilised on BLI sensors and covalently coupled to NHS-Sepharose; Construct details are in the Supplementary methods; also called Nb VB6; source: E. coli, recombinantly expressed and purified
Kd (GFP-labeled vimentin): 37 nM | koff (GFP-labeled vimentin): 0.0176 s⁻¹ | kon (GFP-labeled vimentin): 475000 M⁻¹ s⁻¹

B4: VH3, phage-displayed clone (VHH)
VHH: QVQLVESGGGLAQPGGSLRLSCAASGFTFSSYAMSWVRQAPGKGLEWVSGITSGGSSTYYASSVKGRFTISRDNTKNTLYLQMDNLKSDDTAVYYCAKAWGSASSSRGQGTQVTVSS
notes: as for B1
binding result (purified vimentin-His6): binds

B5: VC4, phage-displayed clone (VHH)
VHH: QVQLVESGGGLVQPGGSLRLSCLASGFSFGSYRMHWVRQAPGKGLEWVSGISSGGGTTYYADSVKGRFTISRDNAKNMLYLQMNNLQPEDTAVYYCLGGDWADWGQGTQVTVSS
notes: as for B1
binding result (purified vimentin-His6): binds

B6: VE3, phage-displayed clone (VHH)
VHH: QVQLVESGGGLVQPGGSLRLSCAASGSTFRIRTMGWYRQAPGKQRELVAVSTNSGGSVNYADSVKGRFTISIDSVKKTTDLQMNSLKPEDTAVYYCNAYDSDYLDYYGQGTQVTVSS
notes: derived from a heavy-chain-only antibody
binding result (purified vimentin-His6): binds

B7: VB3 nanobody (VHH)
VHH: QVQLVESGGGSVQAGDSLRLSCAASGNTFSIKVMGWYRQAPGKQRELVAVSTNSGASVNYANSVKGRFTISIDSVKKTTYLQMNSLKPEDTAVYFCNAYDGRYEDYYGQGTQVTVSS
notes: By its hallmark residues derived from a heavy-chain-only antibody; Used immobilised on BLI sensors and covalently coupled to NHS-Sepharose; Construct and purification details are in the Supplementary methods; also called Nb VB3; source: E. coli, recombinantly expressed and purified
binding result [2]: binds | binding result [3]: binds | FRAP in HeLa cells: half time of fluorescence recovery of the chromobody [4]: 4.3 s | FRAP in HeLa cells: total fluorescence recovery of the chromobody in the photobleached region [4]: 58.4%

B8: VG1, phage-displayed clone (VHH)
VHH: B7 VHH with Q1D, S11L, D16G, R19K, A23K, N27S, F29Y, K32H, M34Y
notes: as for B6
binding result (purified vimentin-His6): binds

B9: VF6, phage-displayed clone (VHH)
VHH: B7 VHH with Q1D, S11L, Q13E, D16G, N27R, I31P, K32Y, K43N
notes: as for B6
binding result (purified vimentin-His6): binds
